Laboratory results: publication PMC8130932 (2021)

How the values were obtained:
[1] = biological target: RBD-VLP (Spycatcher-mi3 VLP-particles conjugated with Spytagged-RBD recombinant protein) (SARS-CoV-2); test: ELISA
[2] = biological target: RBD-6H (340-538; NITN.GPKK), biotinylated (SARS-CoV-2)

B1: FI 3A (antibody, V domains shown)
VH: EVQLLESGGGLIQPGGSLRLSCAASGFTVSSNYMSWVRQAPGKGLEWVSVIYSGGSTYYADSVKGRFTISRDNSKNTLYLQMNSLRAEDTAVYYCARDHVRPGMNIWGQGTMVTVSS
VL: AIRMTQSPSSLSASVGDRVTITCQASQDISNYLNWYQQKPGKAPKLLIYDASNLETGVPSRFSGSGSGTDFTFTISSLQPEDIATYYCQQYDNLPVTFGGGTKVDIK
Q: What does the source list for B1?
A: IC50 [1]: 3 nM; IC50 [2]: 8 nM

B2: FD 5D (antibody, V domains shown)
VH: EVQLVESGGGLVQPGGSLRLSCAASGFTFSSYSMNWVRQAPGKGLEWVSYISSSSSTIYYADPVKGRFTISRDNAKNSLYLQMNSLRAEDTAVYYCASPGGITAAGTSVLFGYYGMDVWGQGTMVTVSS
VL: not shown
Q: How did the IC50 [2] turn out when B2 was run?
A: The IC50 was 34 nM.

B3: FD 11A (antibody, V domains shown)
VH: EVQLVESGGGVVQPGRSLRLSCAASGFTFSSYGMHWVRQAPGKGLEWVAVIWYDGSNKYYADSVKGRFTISRDNSKNTLYLQMNSLRAEDTAVYYCAKGPDILTGYYNYYYYGMDVWGQGTMVTVSS
VL: QSVLTQPPSVSGAPGQRVTISCTGSSSNIGAGYDVHWYQQLPGTAPKLLIYGNSNRPSGVPDRFSGSKSGTSASLAITGLQAEDEADYYCQSYDSSLSGFYVVFGGGTKLTVL
Q: Which IC50 [2] does the source give for B3 here?
A: The IC50 was 164 nM.

B4: EY 6A (antibody, V domains shown)
VH: EVQLVESGGGVVQPGRSLRLSCAASAFTFSSYDMHWVRQAPGKGLEWVAVISYDGSNKYYADSVKGRFTISRDNSKNTLYLQMNSLRAEDTAVYYCAKDGGKLWVYYFDYWGQGTLVTVSS
VL: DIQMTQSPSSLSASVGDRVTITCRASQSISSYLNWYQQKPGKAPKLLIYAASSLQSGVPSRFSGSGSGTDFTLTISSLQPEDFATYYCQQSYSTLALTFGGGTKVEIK
Q: For B4, which IC50 [2] is on record?
A: Its IC50 is 189 nM.

B5: FI 1C (antibody, V domains shown)
VH: EVQLVESGGGLVKPGGSLRLSCAASGFTFSDYYMSWIRQAPGKGLEWVSYISSSGSTIYYADSVKGRFTISRDNAKNSLYLQMNSLRAEDTAVYYCARRSNRFLIAFDIWGQGTMVTVSS
VL: QSALTQPASVSGSPGQTITISCTGTSSDVGGYNYVSWYQQHPGKAPKLMIYEVSNRPSGVSNRFSGSKSGNTASLTISGLQAEDEADYYCSSYTSSSTLVVFGGGTKLTVP
Q: Which results are given for B5?
A: IC50 [1]: 3 nM; IC50 [2]: 109 nM
